We go through 1 molecule from patent publication US6323177, “Interaction of reelin with very low density lipoprotein (VLDL) receptor for screening and therapies” (St. Jude Children's Research Hospital, dated 2001).

The target in this test is Reelin (full length, expressed from pCr1 in 293T cells, conditioned medium) (mouse). Description: cell binding assay: 293T cells with or without VLDL receptor incubated with Reelin conditioned medium, washed, lysed, Western blot with G10. As to the method:
Reelin-VLDL receptor binding assay. 293T cells transfected with or without the VLDL receptor are washed in phosphate buffer saline (PBS) containing divalent cations and distributed into Eppendorf tubes (approximately 10^6 cells/sample). For Reelin binding assays, cells are incubated with conditioned medium containing 20–100 ng of Reelin for 30 min to 2 h at 4° C. or room temperature. Cells are then washed again with PBS and solubilized in […] of TxB buffer (150 mM NaCl, 50 mM Tris-Cl pH7.5, 1% Triton-X, 1 mM EDTA) supplemented with 0.1 mg/ml Aprotinin, with 0.1 mg/m Leupeptin, 20 mM Sodium Fluoride, and 1 mM Sodium Orthovanadate. Cell extracts are clarified by centrifugation at 13,000×g for 10 min at 4° C. and subjected to Western blot analysis to reveal the presence of Reelin retained by the VLDL receptor.
Western blot analysis. Ten µl of cell extract per lane are analyzed by SDS-PAGE on 4–12% minigels (Novex). Proteins are transferred to nitrocellulose membranes and blocked in 3% milk in Tris buffer saline (TBS) for 1 h at room temperature. Proteins bound to the membranes are incubated at 4° C. overnight in antibody diluted in 0.3% milk-TBS supplemented with 0.1% Tween (TBST). Ascites fluids containing the mouse monoclonal G10 antibody (de Bergeyck et al., J. Neurosci. Methods, 82:17–24, 1998) are used at a 1:1000 dilution to detect Reelin. […]

B1: human very low density lipoprotein (VLDL) receptor, expressed on transfected 293T cells (receptor)
chain: not shown
For the molecule B1, the binding result is listed as “binds”.
